The record followed here is paper PMC9744743, “Introducing or removing heparan sulfate binding sites does not alter brain uptake of the blood–brain barrier shuttle scFv8D3” (Scientific Reports, 2022).

The assay addresses T1, recombinant mouse TfR extracellular domain protein (Mus musculus, UniProt Q62351).
T1 construct: transferrin receptor (TfR), mouse, extracellular domain; also called transferrin receptor; source: recombinant, prepared in our lab
The experiment in a line: ELISA; indirect ELISA; half-area plates coated with 50 ng/well recombinant mouse TfR extracellular domain in PBS overnight at 4 °C, blocked with 1% BSA; serial dilutions of scFvs 2 h at RT in PBS with 0.1% BSA and 0.05% Tween-20; detected by mouse anti-Strep-Tag II and HRP goat anti-mouse. Particulars: both partners purified.

T1 sequence (Q62351 89-763): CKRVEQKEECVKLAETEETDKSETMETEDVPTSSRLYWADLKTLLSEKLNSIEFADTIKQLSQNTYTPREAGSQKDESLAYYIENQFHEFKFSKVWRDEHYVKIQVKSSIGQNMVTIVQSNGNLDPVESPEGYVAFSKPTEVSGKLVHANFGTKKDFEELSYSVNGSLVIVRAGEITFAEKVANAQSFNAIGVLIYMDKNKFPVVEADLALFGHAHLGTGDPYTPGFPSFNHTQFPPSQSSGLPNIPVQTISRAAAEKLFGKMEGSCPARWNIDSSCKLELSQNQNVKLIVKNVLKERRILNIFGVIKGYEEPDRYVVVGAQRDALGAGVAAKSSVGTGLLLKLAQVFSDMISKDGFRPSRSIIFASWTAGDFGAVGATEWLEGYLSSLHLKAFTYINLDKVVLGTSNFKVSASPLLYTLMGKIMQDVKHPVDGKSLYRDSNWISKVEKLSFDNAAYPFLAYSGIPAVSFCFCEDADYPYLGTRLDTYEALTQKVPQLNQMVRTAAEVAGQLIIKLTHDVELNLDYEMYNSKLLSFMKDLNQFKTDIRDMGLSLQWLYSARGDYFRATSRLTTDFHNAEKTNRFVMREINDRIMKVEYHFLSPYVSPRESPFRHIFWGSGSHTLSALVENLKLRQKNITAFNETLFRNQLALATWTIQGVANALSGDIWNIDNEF

B1: HS(−)scFv8D3 mutant (K42Q_K43Q and K243Q_R244Q) (scFv, V domains shown)
VH: EVQLVESGGGLVQPGNSLTLSCVASGFTFSNYGMHWIRQAPQQGLEWIAMIYYDSSKMNYADTVKGRFTISRDNSKNTLYLEMNSLRSEDTAMYYCAVPTSHYVVDVWGQGVSVTVSS
VL: DIQMTQSPASLSASLEEIVTITCQASQDIGNWLAWYQQKPGKSPQLLIYGATSLADGVPSRFSGSRSGTQFSLKISRVQVEDIGIYYCLQAYNTPWTFGGGTKLELQ
notes: as the heavy chain variable domain of m1 with the stated changes; numbers count on: the whole scFv8D3 chain; linker, printed as SGSTS (G4S)3; as the light chain variable domain of m1 with the stated changes; Same tag, linkers and signal peptide as m1; also called HS minus mutant; source: Expi293 cells, transfected, purified from supernatant (Strep-Tactin XT)
In the case of B1, the binding result is listed as “binds”.

B2: HS(+)scFv8D3 mutant (S75K and P176K) (scFv, V domains shown)
VH: EVQLVESGGGLVQPGNSLTLSCVASGFTFSNYGMHWIRQAPKKGLEWIAMIYYDSSKMNYADTVKGRFTISRDNKKNTLYLEMNSLRSEDTAMYYCAVPTSHYVVDVWGQGVSVTVSS
VL: DIQMTQSPASLSASLEEIVTITCQASQDIGNWLAWYQQKKGKSPQLLIYGATSLADGVPSRFSGSRSGTQFSLKISRVQVEDIGIYYCLQAYNTPWTFGGGTKLELK
notes: as the heavy chain variable domain of m1 with the stated change; numbers count on: the whole scFv8D3 chain; linker, printed as SGSTS (G4S)3; as the light chain variable domain of m1 with the stated change; Same tag, linkers and signal peptide as m1; That S75 lies in the first domain and P176 in the second is worked out from the residue numbers; also called HS plus mutant; source: Expi293 cells, …
Regarding B2, the binding result is “binds”.
